According to patent publication US20250197467A1:
Read-outs that look alike come from different tables or passages of the source. Blank lines part the entries; values can stand above or below the substance they belong to.

Assays:
[1] = biological target: Composition E, MMP9-treated (Homo sapiens (Human)) (UniProt Q14116)
C157 (human) = C157 (human) (UniProt Q14116); assay: cell-based or functional assay
[2] = biological target: SEQ ID NO 50 (Homo sapiens (Human)) (UniProt Q14116); assay: cell-based or functional assay
[3] = biological target: SEQ ID NO 47 (Homo sapiens (Human)) (UniProt Q14116); assay: cell-based or functional assay
[4] = biological target: SEQ ID NO 59 (Homo sapiens (Human)) (UniProt Q14116); assay: cell-based or functional assay
[5] = biological target: C146 (Homo sapiens (Human)) (UniProt Q14116); assay: cell-based or functional assay
[6] = biological target: SEQ ID NO 9 (Homo sapiens (Human)) (UniProt Q14116); assay: cell-based or functional assay
C162 (human) = C162 (human) (UniProt Q14116); assay: cell-based or functional assay
C162 (human), sequence (Q14116 other isoform, or with tags, fused parts or gaps): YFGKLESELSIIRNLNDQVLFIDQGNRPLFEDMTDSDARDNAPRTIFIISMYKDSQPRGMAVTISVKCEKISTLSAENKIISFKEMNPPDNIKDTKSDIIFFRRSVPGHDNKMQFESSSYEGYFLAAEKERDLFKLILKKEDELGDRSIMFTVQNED

C155 (human) = C155 (human) (UniProt Q14116); assay: cell-based or functional assay
C149 (human) = C149 (human) (UniProt Q14116); assay: cell-based or functional assay
[7] = biological target: SEQ ID NO 6 (Homo sapiens (Human)) (UniProt Q14116); assay: cell-based or functional assay
SEQ ID NO 6 (Homo sapiens (Human)), sequence (Q14116 other isoform, or with tags, fused parts or gaps): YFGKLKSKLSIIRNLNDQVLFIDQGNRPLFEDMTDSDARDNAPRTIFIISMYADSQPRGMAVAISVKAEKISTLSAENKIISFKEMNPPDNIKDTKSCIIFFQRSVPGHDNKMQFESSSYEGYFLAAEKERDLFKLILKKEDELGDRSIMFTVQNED

C161 (human) = C161 (human) (UniProt Q14116); assay: cell-based or functional assay
C161 (human), sequence (Q14116 other isoform, or with tags, fused parts or gaps): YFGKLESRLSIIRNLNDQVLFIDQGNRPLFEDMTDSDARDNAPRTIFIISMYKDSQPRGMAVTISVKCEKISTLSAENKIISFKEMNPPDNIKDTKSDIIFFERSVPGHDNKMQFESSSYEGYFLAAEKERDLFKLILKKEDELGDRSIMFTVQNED

C156 (human) = C156 (human) (UniProt Q14116); assay: cell-based or functional assay
C150 (human) = C150 (human) (UniProt Q14116); assay: cell-based or functional assay
C150 (human), sequence (Q14116 other isoform, or with tags, fused parts or gaps): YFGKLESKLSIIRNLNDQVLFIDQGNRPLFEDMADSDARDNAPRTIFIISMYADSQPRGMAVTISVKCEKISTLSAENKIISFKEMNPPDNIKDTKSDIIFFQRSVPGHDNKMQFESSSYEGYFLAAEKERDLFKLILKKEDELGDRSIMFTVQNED

[8] = biological target: SEQ ID NO 55 (Homo sapiens (Human)) (UniProt Q14116); assay: cell-based or functional assay
SEQ ID NO 55 (Homo sapiens (Human)), sequence (Q14116 other isoform, or with tags, fused parts or gaps): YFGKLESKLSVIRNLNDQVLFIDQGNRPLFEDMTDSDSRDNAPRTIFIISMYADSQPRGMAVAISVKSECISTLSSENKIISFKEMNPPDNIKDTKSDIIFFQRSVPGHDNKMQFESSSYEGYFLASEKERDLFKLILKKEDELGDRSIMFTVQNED

C164 (human) = C164 (human) (UniProt Q14116); assay: cell-based or functional assay
[9] = biological target: SEQ ID NO 62 (Homo sapiens (Human)) (UniProt Q14116); assay: cell-based or functional assay
[10] = biological target: SEQ ID NO 52 (Homo sapiens (Human)) (UniProt Q14116); assay: cell-based or functional assay
SEQ ID NO 52 (Homo sapiens (Human)), sequence (Q14116 other isoform, or with tags, fused parts or gaps): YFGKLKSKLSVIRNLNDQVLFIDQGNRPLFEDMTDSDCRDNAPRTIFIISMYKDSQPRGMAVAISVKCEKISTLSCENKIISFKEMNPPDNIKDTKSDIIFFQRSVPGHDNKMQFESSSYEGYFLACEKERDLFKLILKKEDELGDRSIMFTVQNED

C159 (human) = C159 (human) (UniProt Q14116); assay: cell-based or functional assay
C159 (human), sequence (Q14116 other isoform, or with tags, fused parts or gaps): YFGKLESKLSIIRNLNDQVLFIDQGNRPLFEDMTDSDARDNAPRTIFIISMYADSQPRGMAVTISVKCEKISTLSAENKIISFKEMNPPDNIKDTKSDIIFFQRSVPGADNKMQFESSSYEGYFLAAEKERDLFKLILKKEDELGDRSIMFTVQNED

[11] = biological target: SEQ ID NO 43 (Homo sapiens (Human)) (UniProt Q14116); assay: cell-based or functional assay
SEQ ID NO 43 (Homo sapiens (Human)), sequence (Q14116 other isoform, or with tags, fused parts or gaps): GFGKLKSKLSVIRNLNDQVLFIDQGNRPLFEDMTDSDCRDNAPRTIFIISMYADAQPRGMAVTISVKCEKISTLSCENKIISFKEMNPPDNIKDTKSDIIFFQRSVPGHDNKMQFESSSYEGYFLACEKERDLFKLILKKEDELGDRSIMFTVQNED

[12] = biological target: SEQ ID NO 40 (Homo sapiens (Human)) (UniProt Q14116); assay: cell-based or functional assay
SEQ ID NO 40 (Homo sapiens (Human)), sequence (Q14116 other isoform, or with tags, fused parts or gaps): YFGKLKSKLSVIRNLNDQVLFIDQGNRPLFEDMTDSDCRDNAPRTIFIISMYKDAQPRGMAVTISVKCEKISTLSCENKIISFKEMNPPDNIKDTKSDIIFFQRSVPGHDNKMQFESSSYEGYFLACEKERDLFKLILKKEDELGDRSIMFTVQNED

C167 (human) = C167 (human) (UniProt Q14116); assay: cell-based or functional assay
C144 (human) = C144 (human) (UniProt Q14116); assay: cell-based or functional assay
C151 (human) = C151 (human) (UniProt Q14116); assay: cell-based or functional assay
C151 (human), sequence (Q14116 other isoform, or with tags, fused parts or gaps): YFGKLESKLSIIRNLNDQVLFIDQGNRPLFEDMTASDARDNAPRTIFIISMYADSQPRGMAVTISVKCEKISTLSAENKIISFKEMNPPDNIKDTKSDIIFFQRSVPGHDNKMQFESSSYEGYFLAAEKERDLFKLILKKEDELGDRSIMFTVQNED

C147 (human) = C147 (human) (UniProt Q14116); assay: cell-based or functional assay
[13] = biological target: SEQ ID NO 4 (Homo sapiens (Human)) (UniProt Q14116); assay: cell-based or functional assay
[14] = biological target: SEQ ID NO 37 (Homo sapiens (Human)) (UniProt Q14116); assay: cell-based or functional assay
C143 (human) = C143 (human) (UniProt Q14116); assay: cell-based or functional assay
[15] = biological target: SEQ ID NO 42 (Homo sapiens (Human)) (UniProt Q14116); assay: cell-based or functional assay
C153 (human) = C153 (human) (UniProt Q14116); assay: cell-based or functional assay
[16] = biological target: SEQ ID NO 38 (Homo sapiens (Human)) (UniProt Q14116); assay: cell-based or functional assay
[17] = biological target: C086 (SEQ ID NO: 30) (Homo sapiens (Human)) (UniProt Q14116); assay: cell-based or functional assay
[18] = biological target: SEQ ID NO 51 (Homo sapiens (Human)) (UniProt Q14116); assay: cell-based or functional assay
[19] = biological target: SEQ ID NO 60 (Homo sapiens (Human)) (UniProt Q14116); assay: cell-based or functional assay
C165 (human) = C165 (human) (UniProt Q14116); assay: cell-based or functional assay
[20] = biological target: SEQ ID NO 41 (Homo sapiens (Human)) (UniProt Q14116); assay: cell-based or functional assay
[21] = biological target: SEQ ID NO 48 (Homo sapiens (Human)) (UniProt Q14116); assay: cell-based or functional assay
C158 (human) = C158 (human) (UniProt Q14116); assay: cell-based or functional assay
C166 (human) = C166 (human) (UniProt Q14116); assay: cell-based or functional assay
[22] = biological target: SEQ ID NO 53 (Homo sapiens (Human)) (UniProt Q14116); assay: cell-based or functional assay
[23] = biological target: SEQ ID NO 36 (Homo sapiens (Human)) (UniProt Q14116); assay: cell-based or functional assay
[24] = biological target: IL-18 WT (SEQ ID NO: 1) (human) (UniProt Q14116); assay: cell-based or functional assay
IL-18 WT (SEQ ID NO: 1) (human), sequence (Q14116 37-193): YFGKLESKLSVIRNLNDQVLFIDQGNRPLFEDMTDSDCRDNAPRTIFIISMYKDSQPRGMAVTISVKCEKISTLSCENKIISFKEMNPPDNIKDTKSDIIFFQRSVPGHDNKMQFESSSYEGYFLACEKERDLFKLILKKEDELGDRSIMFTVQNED

C145 (human) = C145 (human) (UniProt Q14116); assay: cell-based or functional assay
[25] = biological target: C190 (Homo sapiens (Human)) (UniProt Q14116); assay: cell-based or functional assay
C160 (human) = C160 (human) (UniProt Q14116); assay: cell-based or functional assay
[26] = biological target: SEQ ID NO 57 (Homo sapiens (Human)) (UniProt Q14116); assay: cell-based or functional assay
C154 (human) = C154 (human) (UniProt Q14116); assay: cell-based or functional assay
C152 (human) = C152 (human) (UniProt Q14116); assay: cell-based or functional assay
C152 (human), sequence (Q14116 other isoform, or with tags, fused parts or gaps): as the sequence (Q14116 37-193) above, with V11I, S36A, C38A, K53A, C76A, C127A counted along it

[27] = biological target: SEQ ID NO 46 (Homo sapiens (Human)) (UniProt Q14116); assay: cell-based or functional assay
SEQ ID NO 46 (Homo sapiens (Human)), sequence (Q14116 other isoform, or with tags, fused parts or gaps): as the sequence (Q14116 37-193) above, with E6K, M51G, K53A, S55A counted along it

C148 (human) = C148 (human) (UniProt Q14116); assay: cell-based or functional assay
[28] = biological target: SEQ ID NO 35 (Homo sapiens (Human)) (UniProt Q14116); assay: cell-based or functional assay
[29] = biological target: SEQ ID NO 39 (Homo sapiens (Human)) (UniProt Q14116); assay: cell-based or functional assay
C163 (human) = C163 (human) (UniProt Q14116); assay: cell-based or functional assay
C163 (human), sequence (Q14116 other isoform, or with tags, fused parts or gaps): as the sequence (Q14116 37-193) above, with V11I, C38A, C76A, Q103K, C127A counted along it

C168 (human) = C168 (human) (UniProt Q14116); assay: cell-based or functional assay
[30] = biological target: SEQ ID NO 5 (Homo sapiens (Human)) (UniProt Q14116); assay: cell-based or functional assay
[31] = biological target: SEQ ID NO 54 (Homo sapiens (Human)) (UniProt Q14116); assay: cell-based or functional assay
[32] = biological target: SEQ ID NO 34 (Homo sapiens (Human)) (UniProt Q14116); assay: cell-based or functional assay
[33] = biological target: Composition S (Homo sapiens (Human)) (UniProt Q14116)
Composition S (Homo sapiens (Human)), sequence (heavy, as listed by the source, chain 1 of 3): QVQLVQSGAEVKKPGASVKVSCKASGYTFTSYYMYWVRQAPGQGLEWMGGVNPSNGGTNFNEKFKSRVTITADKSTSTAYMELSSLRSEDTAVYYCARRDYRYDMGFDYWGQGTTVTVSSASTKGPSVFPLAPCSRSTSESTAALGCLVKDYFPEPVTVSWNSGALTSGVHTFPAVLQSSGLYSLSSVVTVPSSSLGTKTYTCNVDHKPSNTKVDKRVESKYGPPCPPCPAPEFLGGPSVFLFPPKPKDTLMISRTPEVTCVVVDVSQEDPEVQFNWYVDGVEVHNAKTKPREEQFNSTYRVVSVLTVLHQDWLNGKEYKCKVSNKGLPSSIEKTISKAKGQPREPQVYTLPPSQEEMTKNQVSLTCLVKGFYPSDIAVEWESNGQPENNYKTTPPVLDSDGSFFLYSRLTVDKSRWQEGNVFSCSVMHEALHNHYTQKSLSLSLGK
Composition S (Homo sapiens (Human)), sequence (light, as listed by the source, chain 2 of 3): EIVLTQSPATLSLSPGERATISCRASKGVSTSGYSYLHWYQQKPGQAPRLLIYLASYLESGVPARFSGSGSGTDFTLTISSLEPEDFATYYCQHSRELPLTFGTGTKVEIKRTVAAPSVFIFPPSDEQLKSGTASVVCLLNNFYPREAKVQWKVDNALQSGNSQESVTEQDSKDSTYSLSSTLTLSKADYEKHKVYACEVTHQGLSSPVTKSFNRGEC
Composition S (Homo sapiens (Human)), sequence (Q14116 other isoform, or with tags, fused parts or gaps, chain 3 of 3): as the sequence (Q14116 37-193) above, with E6K, V11I, C38A, K53A, T63A, C76A, C127A counted along it

[34] = biological target: His-tagged human IL-18BP (human) (UniProt O95998); assay: AlphaLISA of free IL-18BP
His-tagged human IL-18BP (human), sequence (O95998 31-194): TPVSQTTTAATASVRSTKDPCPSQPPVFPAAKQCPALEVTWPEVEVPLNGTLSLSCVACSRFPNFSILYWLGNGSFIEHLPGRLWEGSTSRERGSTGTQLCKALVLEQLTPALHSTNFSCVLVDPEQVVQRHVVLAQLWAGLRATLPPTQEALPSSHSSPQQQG

[35] = biological target: His-tagged human IL-18BP (human) (UniProt O95998); assay: AlphaLISA of free IL-18BP; remark: listed apart in the source
[36] = biological target: His-tagged human IL-18BP (human) (UniProt O95998); assay: AlphaLISA of free IL-18BP (analyte titrated in assay buffer against 5 ng/ml His-tagged human IL-18BP; falling signal = IL-18BP bound)

IL-18 WT (SEQ ID NO: 1), sequence (Q14116 37-193): as the sequence (Q14116 37-193) above
Fc-fused human IL-18 binding protein isoform a (IL-18BPa), sequence (O95998 31-194 limits assumed): as the sequence (O95998 31-194) above
Composition E, MMP9-treated (Homo sapiens (Human)), sequence (heavy, as listed by the source, chain 1 of 3): as the sequence (heavy, as listed by the source, chain 1 of 3) above
Composition E, MMP9-treated (Homo sapiens (Human)), sequence (light, as listed by the source, chain 2 of 3): as the sequence (light, as listed by the source, chain 2 of 3) above
Composition E, MMP9-treated (Homo sapiens (Human)), sequence (Q14116 other isoform, or with tags, fused parts or gaps, chain 3 of 3): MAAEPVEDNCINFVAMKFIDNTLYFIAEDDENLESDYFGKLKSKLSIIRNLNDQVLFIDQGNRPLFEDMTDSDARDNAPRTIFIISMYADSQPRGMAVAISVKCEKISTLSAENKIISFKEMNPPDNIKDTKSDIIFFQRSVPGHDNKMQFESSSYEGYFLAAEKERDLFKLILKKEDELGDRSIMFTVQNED
C157 (human), sequence (Q14116 other isoform, or with tags, fused parts or gaps): as the sequence (Q14116 37-193) above, with V11I, C38A, K53A, C76A, C127A, D132A counted along it

IC50 (read off the curve), PD-1 positive NK-92 cells [1]: 8 nM | IC50 (IL-18BP inhibition of IFNγ, NK92) (C157 (human)): 6.08 nM | IC50 (IL-18BP inhibition of IFNγ, NK92) [2]: > 1000 nM | IC50 (IL-18BP inhibition of IFNγ, NK92) [3]: 0.444 nM | IC50 (IL-18BP inhibition of IFNγ, NK92) [4]: 654 nM | IC50 (IL-18BP inhibition of IFNγ, NK92) [5]: 733 nM | IC50 (IL-18BP inhibition of IFNγ, NK92) [6]: 961 nM | IC50 (IL-18BP inhibition of IFNγ, NK92) (C162 (human)): 7.29 nM | IC50 (IL-18BP inhibition of IFNγ, NK92) (C155 (human)): 3.23 nM | IC50 (IL-18BP inhibition of IFNγ, NK92) (C149 (human)): 1.17 nM | IC50 (IL-18BP inhibition of IFNγ, NK92) [7]: 5.85 nM | IC50 (IL-18BP inhibition of IFNγ, NK92) (C161 (human)): 1.07 nM | IC50 (IL-18BP inhibition of IFNγ, NK92) (C156 (human)): 0.681 nM | IC50 (IL-18BP inhibition of IFNγ, NK92) (C150 (human)): 21.3 nM | IC50 (IL-18BP inhibition of IFNγ, NK92) [8]: > 1000 nM | IC50 (IL-18BP inhibition of IFNγ, NK92) (C164 (human)): 0.456 nM | IC50 (IL-18BP inhibition of IFNγ, NK92) [9]: 284 nM | IC50 (IL-18BP inhibition of IFNγ, NK92) [10]: 47.1 nM | IC50 (IL-18BP inhibition of IFNγ, NK92) (C159 (human)): 1.81 nM | IC50 (IL-18BP inhibition of IFNγ, NK92) [11]: 27.8 nM | IC50 (IL-18BP inhibition of IFNγ, NK92) [12]: 15 nM | IC50 (IL-18BP inhibition of IFNγ, NK92) (C167 (human)): 0.809 nM | IC50 (IL-18BP inhibition of IFNγ, NK92) (C144 (human)): 7.52 nM | IC50 (IL-18BP inhibition of IFNγ, NK92) (C151 (human)): 3.62 nM | IC50 (IL-18BP inhibition of IFNγ, NK92) (C147 (human)): 47.6 nM | IC50 (IL-18BP inhibition of IFNγ, NK92) [13]: 396 nM | IC50 (IL-18BP inhibition of IFNγ, NK92) [14]: 4.46 nM | IC50 (IL-18BP inhibition of IFNγ, NK92) (C143 (human)): 1.62 nM | IC50 (IL-18BP inhibition of IFNγ, NK92) [15]: 1060 nM | IC50 (IL-18BP inhibition of IFNγ, NK92) (C153 (human)): 2.22 nM | IC50 (IL-18BP inhibition of IFNγ, NK92) [16]: 7.79 nM | IL-18BP-mediated IFNγ inhibition NK-92 assay IC50 [17]: 22.5 nM | IC50 (IL-18BP inhibition of IFNγ, NK92) [18]: 0.239 nM | IC50 (IL-18BP inhibition of IFNγ, NK92) [19]: 780 nM | IC50 (IL-18BP inhibition of IFNγ, NK92) (C165 (human)): 0.885 nM | IC50 (IL-18BP inhibition of IFNγ, NK92) [20]: 37.3 nM | IC50 (IL-18BP inhibition of IFNγ, NK92) [21]: 0.114 nM | IC50 (IL-18BP inhibition of IFNγ, NK92) (C158 (human)): 3.98 nM | IC50 (IL-18BP inhibition of IFNγ, NK92) (C166 (human)): 0.44 nM | IC50 (IL-18BP inhibition of IFNγ, NK92) [22]: 18.2 nM | IC50 (IL-18BP inhibition of IFNγ, NK92) [23]: 27.3 nM | IC50 (IL-18BP inhibition of IFNγ, NK92) [24]: 1.47 nM | IL-18BP-mediated IFNγ inhibition NK-92 assay IC50 [24]: 0.403 nM | IC50 (IL-18BP inhibition of IFNγ, NK92) (C145 (human)): 10.2 nM | IL-18BP-mediated IFNγ inhibition NK-92 assay IC50 [25]: 4.33 nM | IC50 (IL-18BP inhibition of IFNγ, NK92) (C160 (human)): 3.18 nM | IC50 (IL-18BP inhibition of IFNγ, NK92) [26]: 146 nM | IC50 (IL-18BP inhibition of IFNγ, NK92) (C154 (human)): 3.71 nM | IC50 (IL-18BP inhibition of IFNγ, NK92) (C152 (human)): 7.85 nM | IC50 (IL-18BP inhibition of IFNγ, NK92) [27]: 0.189 nM | IC50 (IL-18BP inhibition of IFNγ, NK92) (C148 (human)): 5.05 nM | IC50 (IL-18BP inhibition of IFNγ, NK92) [28]: > 55 nM | IC50 (IL-18BP inhibition of IFNγ, NK92) [29]: > 703 nM | IC50 (IL-18BP inhibition of IFNγ, NK92) (C163 (human)): 0.823 nM | IC50 (IL-18BP inhibition of IFNγ, NK92) (C168 (human)): 0.176 nM | IC50 (IL-18BP inhibition of IFNγ, NK92) [30]: 62.4 nM | IC50 (IL-18BP inhibition of IFNγ, NK92) [31]: 23.5 nM | IC50 (IL-18BP inhibition of IFNγ, NK92) [32]: 229 nM | IC50 (read off the curve), PD-1 negative NK-92 cells [33]: 8 nM
Substance: Fc-fused human IL-18 binding protein isoform a (IL-18BPa) (from UniProt O95998 31-194) (Fc fusion)

Kd [34]: 0.403 nM | Kd [35]: 0.67 nM | IC50 (read off the curve) [36]: 0.08 nM
Substance: IL-18 WT (SEQ ID NO: 1) (from UniProt Q14116 37-193) (ligand)
